Results taken from the supplement of paper PMC5998384.

What was measured:
HeLa Kyoto [1] = assay: solubility change mitosis vs G1/S (difference of NP-40 vs SDS log2 ratios) (log2 ratio difference); higher = more soluble in mitosis
HeLa Kyoto [2] = assay: solubility in G1/S (NP-40 vs SDS abundance) (log2 ratio); higher = more soluble; conditions: cell cycle stage: G1/S
HeLa Kyoto [3] = assay: thermal stability score vs G1/S (z-score of summed log2 fold changes over temperatures); higher = more thermally stable than in G1/S
HeLa Kyoto [4] = assay: melting temperature (median over replicates), in situ; higher = more thermally stable
[5] = cell cycle stage: early G1 (4.5 h after nocodazole release)
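For melting temperature (median over replicates), in situ in this document: HeLa Kyoto cells synchronized by double thymidine or nocodazole block, proteins quantified by TMT10plex mass spectrometry, three independent biological replicates.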
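For solubility change mitosis vs G1/S (difference of NP-40 vs SDS log2 ratios) in this document: synchronized HeLa Kyoto cells (double thymidine block for G1/S, nocodazole release for mitosis), protein amounts in NP-40 versus SDS lysates quantified by mass spectrometry, three biological replicates.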
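For solubility in G1/S (NP-40 vs SDS abundance) in this document: HeLa Kyoto cells arrested at G1/S by double thymidine block, proteins quantified by TMT10plex mass spectrometry in mild NP-40 versus SDS extracts, three biological replicates.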
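For thermal stability score vs G1/S (z-score of summed log2 fold changes over temperatures) in this document: synchronized HeLa Kyoto cells, proteins quantified by TMT10plex mass spectrometry, three biological replicates, mitosis taken 0.5 h after nocodazole release, G1/S directly after double thymidine block.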

| Sequence | solubility change mitosis (log2) (HeLa Kyoto [1]) | solubility in G1/S (log2) (HeLa Kyoto [2]) | thermal stability score (HeLa Kyoto [3]; [5]) | thermal stability score (HeLa Kyoto [3]; cell cycle stage: mitosis) | melting temperature (HeLa Kyoto [4]; cell cycle stage: G1/S) [°C] | melting temperature (HeLa Kyoto [4]; cell cycle stage: mitosis) [°C] |
| --- | --- | --- | --- | --- | --- | --- |
| MKLKDTKSRPKQSSCGKFQTKGIKVVGKWKEVKIDPNMFADGQMDDLVCFEELTDYQLVSPAKNPSSLFSKEAPKRKAQAVSEEEEEEEGKSSSPKKKIKLKKSKNVATEGTSTQKEFEVKDPELEAQGDDMVCDDPEAGEMTSENLVQTAPKKKKNKGKKGLEPSQSTAAKVPKKAKTWIPEVHDQKADVSAWKDLFVPRPVLRALSFLGFSAPTPIQALTLAPAIRDKLDILGAAETGSGKTLAFAIPMIHAVLQWQKRNAAPPPSNTEAPPGETRTEAGAETRSPGKAEAESDALPDDTVIESEALPSDIAAEARAKTGGTVSDQALLFGDDDAGEGPSSLIREKPVPKQNENEEENLDKEQTGNLKQELDDKSATCKAYPKRPLLGLVLTPTRELAVQVKQHIDAVARFTGIKTAILVGGMSTQKQQRMLNRRPEIVVATPGRLWELIKEKHYHLRNLRQLRCLVVDEADRMVEKGHFAELSQLLEMLNDSQYNPKRQTLVFSATLTLVHQAPARILHKKHTKKMDKTAKLDLLMQKIGMRGKPKVIDLTRNEATVETLTETKIHCETDEKDFYLYYFLMQYPGRSLVFANSISCIKRLSGLLKVLDIMPLTLHACMHQKQRLRNLEQFARLEDCVLLATDVAARGLDIPKVQHVIHYQVPRTSEIYVHRSGRTARATNEGLSLMLIGPEDVINFKKIYKTLKKDEDIPLFPVQTKYMDVVKERIRLARQIEKSEYRNFQACLHNSWIEQAAAALEIELEEDMYKGGKADQQEERRRQKQMKVLKKELRHLLSQPLFTESQKTKYPTQSGKPPLLVSAPSKSESALSCLSKQKKKKTKKPKEPQPEQPQPSTSAN [DDX24] | 1.07 | -1.47 | -0.338 | 1.04 | 49.9 | 50.5 |
| MTSSGPGPRFLLLLPLLLPPAASASDRPRGRDPVNPEKLLVITVATAETEGYLRFLRSAEFFNYTVRTLGLGEEWRGGDVARTVGGGQKVRWLKKEMEKYADREDMIIMFVDSYDVILAGSPTELLKKFVQSGSRLLFSAESFCWPEWGLAEQYPEVGTGKRFLNSGGFIGFATTIHQIVRQWKYKDDDDDQLFYTRLYLDPGLREKLSLNLDHKSRIFQNLNGALDEVVLKFDRNRVRIRNVAYDTLPIVVHGNGPTKLQLNYLGNYVPNGWTPEGGCGFCNQDRRTLPGGQPPPRVFLAVFVEQPTPFLPRFLQRLLLLDYPPDRVTLFLHNNEVFHEPHIADSWPQLQDHFSAVKLVGPEEALSPGEARDMAMDLCRQDPECEFYFSLDADAVLTNLQTLRILIEENRKVIAPMLSRHGKLWSNFWGALSPDEYYARSEDYVELVQRKRVGVWNVPYISQAYVIRGDTLRMELPQRDVFSGSDTDPDMAFCKSFRDKGIFLHLSNQHEFGRLLATSRYDTEHLHPDLWQIFDNPVDWKEQYIHENYSRALEGEGIVEQPCPDVYWFPLLSEQMCDELVAEMEHYGQWSGGRHEDSRLAGGYENVPTVDIHMKQVGYEDQWLQLLRTYVGPMTESLFPGYHTKARAVMNFVVRYRPDEQPSLRPHHDSSTFTLNVALNHKGLDYEGGGCRFLRYDCVISSPRKGWALLHPGRLTHYHEGLPTTWGTRYIMVSFVDP [PLOD3] | 0.039 | -0.074 | 2.65 | 3.82 | 54.2 | 55 |
| MANDSPAKSLVDIDLSSLRDPAGIFELVEVVGNGTYGQVYKGRHVKTGQLAAIKVMDVTEDEEEEIKLEINMLKKYSHHRNIATYYGAFIKKSPPGHDDQLWLVMEFCGAGSITDLVKNTKGNTLKEDWIAYISREILRGLAHLHIHHVIHRDIKGQNVLLTENAEVKLVDFGVSAQLDRTVGRRNTFIGTPYWMAPEVIACDENPDATYDYRSDLWSCGITAIEMAEGAPPLCDMHPMRALFLIPRNPPPRLKSKKWSKKFFSFIEGCLVKNYMQRPSTEQLLKHPFIRDQPNERQVRIQLKDHIDRTRKKRGEKDETEYEYSGSEEEEEEVPEQEGEPSSIVNVPGESTLRRDFLRLQQENKERSEALRRQQLLQEQQLREQEEYKRQLLAERQKRIEQQKEQRRRLEEQQRREREARRQQEREQRRREQEEKRRLEELERRRKEEEERRRAEEEKRRVEREQEYIRRQLEEEQRHLEVLQQQLLQEQAMLLECRWREMEEHRQAERLQRQLQQEQAYLLSLQHDHRRPHPQHSQQPPPPQQERSKPSFHAPEPKAHYEPADRAREVEDRFRKTNHSSPEAQSKQTGRVLEPPVPSRSESFSNGNSESVHPALQRPAEPQVPVRTTSRSPVLSRRDSPLQGSGQQNSQAGQRNSTSIEPRLLWERVEKLVPRPGSGSSSGSSNSGSQPGSHPGSQSGSGERFRVRSSSKSEGSPSQRLENAVKKPEDKKEVFRPLKPADLTALAKELRAVEDVRPPHKVTDYSSSSEESGTTDEEDDDVEQEGADESTSGPEDTRAASSLNLSNGETESVKTMIVHDDVESEPAMTPSKEGTLIVRQTQSASSTLQKHKSSSSFTPFIDPRLLQISPSSGTTVTSVVGFSCDGMRPEAIRQDPTRKGSVVNVNPTNTRPQSDTPEIRKYKKRFNSEILCAALWGVNLLVGTESGLMLLDRSGQGKVYPLINRRRFQQMDVLEGLNVLVTISGKKDKLRVYYLSWLRNKILHNDPEVEKKQGWTTVGDLEGCVHYKVVKYERIKFLVIALKSSVEVYAWAPKPYHKFMAFKSFGELVHKPLLVDLTVEEGQRLKVIYGSCAGFHAVDVDSGSVYDIYLPTHIQCSIKPHAIIILPNTDGMELLVCYEDEGVYVNTYGRITKDVVLQWGEMPTSVAYIRSNQTMGWGEKAIEIRSVETGHLDGVFMHKRAQRLKFLCERNDKVFFASVRSGGSSQVYFMTLGRTSLLSW [MAP4K4] | -0.0676 | -0.155 | 0.471 | 0.408 | 51.7 | 51.3 |
| MPYLGSEDVVKELKKALCNPHIQADRLRYRNVIQRVIRYMTQGLDMSGVFMEMVKASATVDIVQKKLVYLYMCTYAPLKPDLALLAINTLCKDCSDPNPMVRGLALRSMCSLRMPGVQEYIQQPILNGLRDKASYVRRVAVLGCAKMHNLHGDSEVDGALVNELYSLLRDQDPIVVVNCLRSLEEILKQEGGVVINKPIAHHLLNRMSKLDQWGQAEVLNFLLRYQPRSEEELFDILNLLDSFLKSSSPGVVMGATKLFLILAKMFPHVQTDVLVRVKGPLLAACSSESRELCFVALCHVRQILHSLPGHFSSHYKKFFCSYSEPHYIKLQKVEVLCELVNDENVQQVLEELRGYCTDVSADFAQAAIFAIGGIARTYTDQCVQILTELLGLRQEHITTVVVQTFRDLVWLCPQCTEAVCQALPGCEENIQDSEGKQALIWLLGVHGERIPNAPYVLEDFVENVKSETFPAVKMELLTALLRLFLSRPAECQDMLGRLLYYCIEEEKDMAVRDRGLFYYRLLLVGIDEVKRILCSPKSDPTLGLLEDPAERPVNSWASDFNTLVPVYGKAHWATISKCQGAERCDPELPKTSSFAASGPLIPEENKERVQELPDSGALMLVPNRQLTADYFEKTWLSLKVAHQQVLPWRGEFHPDTLQMALQVVNIQTIAMSRAGSRPWKAYLSAQDDTGCLFLTELLLEPGNSEMQISVKQNEARTETLNSFISVLETVIGTIEEIKS [AP4B1] | -0.136 | -0.123 | -0.012 | 0.298 | 49.3 | 49.7 |
| MVLGPEQKMSDDSVSGDHGESASLGNINPAYSNPSLSQSPGDSEEYFATYFNEKISIPEEEYSCFSFRKLWAFTGPGFLMSIAYLDPGNIESDLQSGAVAGFKLLWILLLATLVGLLLQRLAARLGVVTGLHLAEVCHRQYPKVPRVILWLMVELAIIGSDMQEVIGSAIAINLLSVGRIPLWGGVLITIADTFVFLFLDKYGLRKLEAFFGFLITIMALTFGYEYVTVKPSQSQVLKGMFVPSCSGCRTPQIEQAVGIVGAVIMPHNMYLHSALVKSRQVNRNNKQEVREANKYFFIESCIALFVSFIINVFVVSVFAEAFFGKTNEQVVEVCTNTSSPHAGLFPKDNSTLAVDIYKGGVVLGCYFGPAALYIWAVGILAAGQSSTMTGTYSGQFVMEGFLNLKWSRFARVVLTRSIAIIPTLLVAVFQDVEHLTGMNDFLNVLQSLQLPFALIPILTFTSLRPVMSDFANGLGWRIAGGILVLIICSINMYFVVVYVRDLGHVALYVVAAVVSVAYLGFVFYLGWQCLIALGMSFLDCGHTCHLGLTAQPELYLLNTMDADSLVSR [SLC11A2] | -0.211 | -0.142 | 2.43 | -0.114 | 58.8 | 57.6 |
